Source: patent US8715959B2, “Substitution mutant receptors and their use in a nuclear receptor-based inducible gene expression system” (priority 2001, dated 2014)
Where a chain is given by its changes, count along the chain named. Names and notes keep the numbering of the source.

Tests used:
[1] = biological target: A110P mutant CfEcR-A/BCDEF (Choristoneura fumiferana, UniProt O77255, A393P); assay: 3H-RH2485 competition ligand binding, A110P mutant CfEcR-A/BCDEF with CfUSP
Description: The ligand binding affinities of the A110P GAL4/CfEcR mutant were measured by binding ^3H-RH2485 and competing it with different concentrations of cold steroids or non-steroids. Briefly, 3H-RH2485 was bound to in vitro translated full-length CfEcR and bacterially expressed CfUSP and competed with increasing concentrations of cold steroidal or non-steroidal ligands. The reaction was carried out at room temperature for 1 hour followed by addition of activated dextran coated charcoal and centrifugation at 7000×g for 10 minutes at 4° C. The residual ^3H-RH2485 in the supernatant after centrifugation was measured using a scintillation counter. The fraction bound (f bound) values were determined and plotted against the concentration of ligand (in mM).

[2] = tested on: A110P mutant CfEcR; assay: In vitro ligand binding assay with 3H-RH2485 and cold competitors, full-length A110P mutant (FIG. 1); set-up: species or system Choristoneura fumiferana; conditions: cold ligand as competitor of 3H-RH2485
Description: (§1) Applicants tested the A110P mutant CfEcR receptor in a steroid and non-steroid ligand binding assay to confirm that steroid binding was eliminated. Briefly, PonA binding activity was determined using an in vitro ligand binding assay (LBA). Steroid ligand binding assay (LBA) was performed using ^3H-PonA (200 Ci/mmol). In vitro translated Gal4/wild-type or A110P mutant CfEcR-DEF and bacterial expressed GST-CfUSP-A/BCDEF were used in the assay. The assay was performed with 8 μL of Gal4/wild-type or A110P mutant CfEcR-DEF, 2.5 uL of GST-CfUSP-A/BCDEF, 1 μL of ^3H-PonA, and 2 μL of unlabeled (“cold”) PonA as competitor in the presence of T buffer [90 mM Tris pH 8.0, 10 μM DTT comprising Complete™ protease inhibitor cocktail used according to the manufacturer's instructions (Boehringer Mannheim)]. The reaction was carried out at room temperature for 1 hour followed by the addition of dextran-coated charcoal (Sigma). The mixture was centrifuged at 7000×g for 10 minutes the amount of ^3H-PonA in the supernatant was measured. The reactions were done in triplicate. The full-length WT EcR or its A110P mutant were also in vitro translated and transcribed using the TNT system (Promega) according to the manufacturer's instructions and tested in in vitro ligand binding assays using 3H-RH2485, with cold 20E or non-steroids (RH2485 and GS™-E) as competitors. In addition, 5 μL of the in vitro translations were assayed for translation efficiency using SDS-PAGE following standard methods (Maniatis, 1989). The ligand binding results for both the wild-type and A110P mutant CfEcR-DEF receptors were calculated and are shown in FIG. 1.

[3] = tested on: WT full-length EcR; assay: In vitro ligand binding assay with 3H-RH2485 and cold competitors, full-length WT EcR (FIG. 1); set-up: species or system Choristoneura fumiferana; conditions: cold ligand as competitor
Description: as §1

[4] = biological target: T1, wild-type CfEcR-A/BCDEF (Choristoneura fumiferana, UniProt O77240); assay: 3H-RH2485 competition ligand binding, wild-type CfEcR-A/BCDEF with CfUSP
T1 construct: "The full-length spruce budworm Choristoneura fumiferana EcR (“CfEcR-A/BCDEF”); b350 and b353 describe plain full-length EcR translated in vitro

[5] = tested on: CfEcR-A/BCDEF; assay: GAL4/full length CfEcR-A/BCDEF or A110P mutant, EcRE-driven luciferase reporter in NIH3T3 cells (FIG. 2); format: cell-based, Choristoneura fumiferana; conditions: 40 hours
Description: To eliminate the possibility that the loss of steroid activity may be due to the truncated CfEcR-DEF receptor or an artifact of the GAL4 fusion protein, Applicants introduced the A110P mutation into the full length (FL) CfEcR (CfEcR-A/BCDEF), fused it to the GAL4 DNA binding domain as described in Example 1.4, and comparatively assayed it in NIH3T3 cells in 24-well plates as described in Example 2 above with full length wild type CfEcR (Example 1.3) in combination with VP16/LmUSP-EF and pFREcRE Luc that comprised the luciferase reporter gene operatively linked to six copies of the ecdysone response element (6×EcRE) and a synthetic TATAA. The transfected cells were grown in the presence of 0.25 or 10 μM PonA or GS™-E and the reporter activity was measured at 40 hours after adding ligand. The cells were harvested and the extracts were assayed for luciferase activity. The numbers on top of the bars indicate fold increase over DMSO levels.

[6] = tested on: CfEcR-DEF; assay: GAL4/mutant CfEcR-DEF + VP16/LmUSP-EF GAL4-driven luciferase reporter transactivation in NIH3T3 cells; format: cell-based, Choristoneura fumiferana
[7] = tested on: CfEcR-CDEF; conditions: L57 cells, 40 hours, FIG. 3
Description: To determine whether the A110P mutant can respond to 20E, Applicants tested this A110P mutant-based gene expression system in an EcRE-driven reporter assay in insect L57 cells (a Drosophila melanogaster cell line that lacks EcR isoform B, the Drosophila melanogaster EcR isoform homolog of CfEcR isoform B from which the A110P mutant is derived, however L57 cells still contain EcR isoform A). The mutation was introduced into the VP16/CfEcR-CDEF fusion protein and operably linked to an baculovirus IE1 promoter and L57 cells were transfected with IE1VP16CfEcRCDEF (Example 1.5) or its A110P mutant version DNA (Example 1.6) along with a pMK43.2 β-galactosidase reporter gene under the control of 6× ecdysone response elements (“6×EcRE”; the pMK43.2 construct was obtained from Michael Koelle at Stanford University) in 24-well plates. Reporter activity for A110P mutant-based gene expression system transactivation was measured after 40 hours of treatment of the transfected cells with 0, 1, 10, 100, or 1000 nM 20E or GS™-E. The cells were harvested and the extracts were assayed for β-galactosidase (β-gal) and luciferase activity. β-Galactosidase was measured using Galacto-Star™ assay kit from TROPIX following the manufacturer's instructions.

[8] = tested on: CfEcR; assay: In vitro 3H-PonA ligand binding of CfEcR wild-type and A110 mutants (FIG. 5); set-up: species or system Choristoneura fumiferana; conditions: in vitro translated receptor with GST-CfUSP-A/BCDEF
[9] = tested on: CfEcR-DEF; assay: GAL4 fusions of A110 mutants of CfEcR-DEF, reporter transactivation in NIH3T3 cells (FIG. 4); format: cell-based, Choristoneura fumiferana; conditions: 0.04-25 μM GS™-E or RH-125020, 48 hours
Description: Four mutations: A110S, A110P, A110L, and A110M were obtained. These four mutant and wild-type receptors were assayed in NIH3T3 cells.

**Q.** `CCc1c(OC)cccc1C(=O)NN(C(=O)c1cc(C)cc(C)c1)C(C)(C)C` [GS ™-E, N-(2-ethyl-3-methoxybenzoyl)-N′-(3,5-dimethylbenzoyl)-N′-tert-butylhydrazine] was tested. Which IC50 [1] did it give?
**A.** 12.9 nM

**Q.** What about the “binding of ligand by the A110P mutant” value [2] of the same molecule?
**A.** unaffected

**Q.** What about the “competition with bound 3H-RH2485 (binding to WT full-length EcR)” value [3] of the same molecule?
**A.** able to effectively compete

**Q.** What about the IC50 [4] of the same molecule?
**A.** 85.3 nM

**Q.** Which results are given for `COc1cccc(C(=O)NN(C(=O)c2cc(C)cc(C)c2)C(C)(C)C)c1C` [RH-2485, N′-tert-butyl-N′-(3,5-dimethylbenzoyl)-3-methoxy-2-methylbenzohydrazide]?
**A.** IC50 [1]: 350 nM; binding of ligand by the A110P mutant [2]: unaffected; competition with bound 3H-RH2485 (binding to WT full-length EcR) [3]: able to effectively compete; IC50 [4]: 1800 nM

**Q.** `CC(C)(O)CC[C@@H](O)[C@](C)(O)[C@H]1CC[C@@]2(O)C3=CC(=O)[C@@H]4C[C@@H](O)[C@@H](O)C[C@]4(C)[C@H]3CC[C@]12C` [Mutant 20E, 20-hydroxyecdysone] was tested. Which “binding of ligand by the A110P mutant” value [2] did it give?
**A.** completely disrupted

**Q.** And the “competition with bound 3H-RH2485 (binding to WT full-length EcR)” value [3]?
**A.** able to effectively compete

B1: A110P: CfEcR LBD substitution mutant, Alanine (A) to Proline (P); also made in CfEcR-A/BCDEF and CfEcR-CDEF (protein, listed as Choristoneura fumiferana)
chain: LTANQQFLIARLIWYQDGYEQPSDEDLKRITQTWQQADDENEESDTPFRQITEMTILTVQLIVEFAKGLPGFAKISQPDQITLLKACSSEVMMLRVARRYDAASDSVLFPNNQAYTRDNYRKAGMAYVIEDLLHFCRCMYSMALDNIHYALLTAVVIFSDRPGLEQPQLVEEIQRYYLNTLRIYILNQLSGSARSSVIYGKILSILSELRTLGMQNSNMCISLKLKNRKLPPFLEEIWDV
**Q.** Which results are given for B1?
**A.** non-steroid activity of full length receptor versus full length WT CfEcR ([5]; 0.25 or 10 μM GS™-E): no significant difference; PonA activity of full length receptor ([5]; 0.25 or 10 μM PonA): completely lost; Fold increase over WT, 2.5 μM GS™-E ([6]; 2.5 μM GS™-E non-steroidal ligand, NIH3T3 cells, relative to Gal4/wild-type CfEcR-DEF switch activity): 0.8 fold; Fold increase over WT, 2.5 μM PonA ([6]; 2.5 μM PonA steroidal ligand, NIH3T3 cells, relative to Gal4/wild-type CfEcR-DEF switch activity): 0.005 fold; non-steroid activity (summary of Table 10) ([6]; GS™-E, CfEcR-DEF point mutants): not significantly affected; steroid binding activity (summary of Table 10) ([6]; PonA, CfEcR-DEF point mutants): essentially eliminated; reporter gene activity in the presence of 20E ([7]; 1-1000 nM 20E): slightly increased reporter gene activity; reporter gene expression in the presence of GS™-E ([7]; 1-1000 nM GS™-E): transactivated reporter gene expression; PonA binding, of wild-type receptor binding [8]: undetectable

B2: A110L: CfEcR-DEF LBD substitution mutant, Alanine (A) to Leucine (L) (protein, listed as Choristoneura fumiferana)
chain: B1 chain with P110L
**Q.** For B2, which “non-steroid reporter activity compared to wild-type receptor” value [9] is on record?
**A.** lower sensitivity and no detectable transactivation at the two lowest concentrations

B3: A110S: CfEcR-DEF LBD substitution mutant, Alanine (A) to Serine (S) (protein, listed as Choristoneura fumiferana)
chain: B1 chain with P110S
**Q.** For B3, which “non-steroid reporter activity compared to wild-type receptor” value [9] is on record?
**A.** lower sensitivity and no detectable transactivation at the two lowest concentrations

B4: A110M: CfEcR-DEF LBD substitution mutant, Alanine (A) to Methionine (M) (protein, listed as Choristoneura fumiferana)
chain: B1 chain with P110M
**Q.** How did the “non-steroid reporter activity compared to wild-type receptor” value [9] turn out when B4 was run?
**A.** lower sensitivity and no detectable transactivation at the two lowest concentrations
